In patent US20240287484:

Experiments:
Settings in all cases: qPCR; 3 mM MgCl2, 37 C
[1] = system: T1, MG153-17 RT (uncultivated organism (metagenomic))
T1 sequence: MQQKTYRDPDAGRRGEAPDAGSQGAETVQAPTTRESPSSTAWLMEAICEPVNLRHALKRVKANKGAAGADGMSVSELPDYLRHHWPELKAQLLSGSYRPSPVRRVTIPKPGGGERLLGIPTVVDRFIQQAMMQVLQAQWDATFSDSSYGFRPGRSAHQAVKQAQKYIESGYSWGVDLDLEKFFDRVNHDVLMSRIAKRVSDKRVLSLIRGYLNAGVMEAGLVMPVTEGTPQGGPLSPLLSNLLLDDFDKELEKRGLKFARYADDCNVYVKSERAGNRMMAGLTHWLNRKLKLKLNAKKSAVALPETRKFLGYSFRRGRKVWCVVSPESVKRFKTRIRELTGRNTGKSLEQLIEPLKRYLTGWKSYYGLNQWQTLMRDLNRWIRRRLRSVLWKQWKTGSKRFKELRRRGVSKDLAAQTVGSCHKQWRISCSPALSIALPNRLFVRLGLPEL

[2] = system: T2, MG153-40 RT (uncultivated organism (metagenomic))
T2 sequence: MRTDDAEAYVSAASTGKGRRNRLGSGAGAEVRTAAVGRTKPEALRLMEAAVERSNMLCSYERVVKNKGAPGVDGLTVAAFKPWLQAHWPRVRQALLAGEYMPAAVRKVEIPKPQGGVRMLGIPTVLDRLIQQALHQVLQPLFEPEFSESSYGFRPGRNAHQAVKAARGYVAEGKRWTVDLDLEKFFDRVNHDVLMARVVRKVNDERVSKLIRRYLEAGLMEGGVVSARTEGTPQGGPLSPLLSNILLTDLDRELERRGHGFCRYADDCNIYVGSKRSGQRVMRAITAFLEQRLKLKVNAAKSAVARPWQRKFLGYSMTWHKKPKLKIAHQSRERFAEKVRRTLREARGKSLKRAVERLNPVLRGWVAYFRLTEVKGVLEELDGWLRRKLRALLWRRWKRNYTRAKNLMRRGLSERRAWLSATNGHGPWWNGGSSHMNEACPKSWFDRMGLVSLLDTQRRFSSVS

[3] = system: T3, MG153-47 RT (uncultivated organism (metagenomic))
T3 sequence: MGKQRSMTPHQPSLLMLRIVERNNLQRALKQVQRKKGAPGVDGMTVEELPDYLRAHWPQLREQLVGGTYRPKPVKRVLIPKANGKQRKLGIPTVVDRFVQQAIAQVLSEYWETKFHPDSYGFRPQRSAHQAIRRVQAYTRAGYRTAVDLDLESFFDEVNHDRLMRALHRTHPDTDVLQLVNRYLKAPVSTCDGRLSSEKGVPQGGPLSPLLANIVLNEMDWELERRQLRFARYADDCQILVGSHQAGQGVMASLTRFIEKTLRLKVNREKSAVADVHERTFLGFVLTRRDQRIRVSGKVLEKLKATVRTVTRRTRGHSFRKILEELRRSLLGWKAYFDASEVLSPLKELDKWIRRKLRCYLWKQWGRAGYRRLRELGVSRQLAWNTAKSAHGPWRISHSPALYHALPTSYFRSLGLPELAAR

[4] = system: T4, MG153-50 RT (uncultivated organism (metagenomic))
T4 sequence: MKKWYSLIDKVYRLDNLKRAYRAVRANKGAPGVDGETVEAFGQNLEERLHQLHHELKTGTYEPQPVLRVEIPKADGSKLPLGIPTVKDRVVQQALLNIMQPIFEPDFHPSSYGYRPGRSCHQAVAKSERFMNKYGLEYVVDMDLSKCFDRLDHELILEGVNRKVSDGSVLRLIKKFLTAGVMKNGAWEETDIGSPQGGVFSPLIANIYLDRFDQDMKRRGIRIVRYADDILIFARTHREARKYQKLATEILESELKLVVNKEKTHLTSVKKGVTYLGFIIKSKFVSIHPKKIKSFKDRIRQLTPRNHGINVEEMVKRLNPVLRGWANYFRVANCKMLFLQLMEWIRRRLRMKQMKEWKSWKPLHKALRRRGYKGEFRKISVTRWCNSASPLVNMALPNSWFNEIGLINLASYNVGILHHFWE

[5] = system: T5, MG153-55 RT (uncultivated organism (metagenomic))
T5 sequence: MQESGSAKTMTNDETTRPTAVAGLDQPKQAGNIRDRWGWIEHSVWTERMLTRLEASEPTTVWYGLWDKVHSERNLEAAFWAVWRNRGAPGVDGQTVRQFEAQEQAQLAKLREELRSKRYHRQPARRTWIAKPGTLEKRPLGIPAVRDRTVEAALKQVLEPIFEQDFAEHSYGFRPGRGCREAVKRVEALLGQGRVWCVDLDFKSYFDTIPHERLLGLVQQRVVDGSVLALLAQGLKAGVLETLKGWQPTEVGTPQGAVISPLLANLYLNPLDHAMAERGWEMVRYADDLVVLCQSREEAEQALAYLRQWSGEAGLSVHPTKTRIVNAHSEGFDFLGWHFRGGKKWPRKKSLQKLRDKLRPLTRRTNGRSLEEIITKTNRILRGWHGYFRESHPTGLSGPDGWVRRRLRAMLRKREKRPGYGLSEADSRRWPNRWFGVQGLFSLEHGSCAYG

[6] = system: T6, MG153-56 RT (uncultivated organism (metagenomic))
T6 sequence: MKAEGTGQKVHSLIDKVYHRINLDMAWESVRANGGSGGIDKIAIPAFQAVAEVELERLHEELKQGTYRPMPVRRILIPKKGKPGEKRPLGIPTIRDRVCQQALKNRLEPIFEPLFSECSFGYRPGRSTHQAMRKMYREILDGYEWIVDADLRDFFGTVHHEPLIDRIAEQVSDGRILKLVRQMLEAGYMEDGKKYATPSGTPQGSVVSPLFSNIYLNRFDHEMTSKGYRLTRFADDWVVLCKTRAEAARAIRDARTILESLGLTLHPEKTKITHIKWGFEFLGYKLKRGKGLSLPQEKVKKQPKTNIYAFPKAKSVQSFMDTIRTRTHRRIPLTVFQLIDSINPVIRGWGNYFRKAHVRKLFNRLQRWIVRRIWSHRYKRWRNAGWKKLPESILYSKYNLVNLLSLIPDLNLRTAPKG

Measured: activity (fold over background)

200 nt RNA template annealed to DNA primer
> 10: all assays above
